# Test results published in patent US20210332120A1 (JOINT STOCK COMPANY BIOCAD, published 2021).
# T1: guinea pig TNFα (guinea pig, UniProt P51435 80-234, limits assumed)
# T1 sequence (looked up): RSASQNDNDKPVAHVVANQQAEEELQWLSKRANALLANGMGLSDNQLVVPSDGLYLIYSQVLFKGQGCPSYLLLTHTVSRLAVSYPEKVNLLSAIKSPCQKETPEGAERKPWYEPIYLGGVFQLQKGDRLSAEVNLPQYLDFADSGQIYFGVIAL
# T2: mouse TNFα (mouse, UniProt P06804 80-235)
# T2 sequence (looked up): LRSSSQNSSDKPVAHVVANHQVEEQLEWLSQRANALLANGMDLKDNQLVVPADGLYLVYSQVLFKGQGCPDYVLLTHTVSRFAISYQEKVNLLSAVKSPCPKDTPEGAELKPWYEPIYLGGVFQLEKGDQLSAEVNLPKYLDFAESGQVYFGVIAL
# T3: human IL-17E (human, UniProt Q9H293 33-177)
# T3 sequence (looked up): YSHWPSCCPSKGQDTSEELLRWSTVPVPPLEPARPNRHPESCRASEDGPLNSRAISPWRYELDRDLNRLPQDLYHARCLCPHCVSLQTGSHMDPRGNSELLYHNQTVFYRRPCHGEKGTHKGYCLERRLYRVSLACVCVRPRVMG
# T4: human IL-17C (human, UniProt Q9P0M4 19-197)
# T4 sequence (looked up): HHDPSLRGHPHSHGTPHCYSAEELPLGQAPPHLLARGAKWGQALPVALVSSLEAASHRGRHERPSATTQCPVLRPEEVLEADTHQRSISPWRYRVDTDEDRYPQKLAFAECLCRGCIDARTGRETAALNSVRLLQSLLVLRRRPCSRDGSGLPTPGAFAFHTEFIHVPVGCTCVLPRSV
# T5: rabbit TNFα (rabbit, UniProt P04924 80-235, limits assumed)
# T5 sequence (looked up): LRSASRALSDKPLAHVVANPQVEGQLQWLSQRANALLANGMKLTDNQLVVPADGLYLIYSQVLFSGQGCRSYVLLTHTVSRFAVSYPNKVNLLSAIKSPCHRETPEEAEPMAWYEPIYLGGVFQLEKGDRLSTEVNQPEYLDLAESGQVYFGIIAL
# T6: human IL-17B (human, UniProt Q9UHF5 21-180)
# T6 sequence (looked up): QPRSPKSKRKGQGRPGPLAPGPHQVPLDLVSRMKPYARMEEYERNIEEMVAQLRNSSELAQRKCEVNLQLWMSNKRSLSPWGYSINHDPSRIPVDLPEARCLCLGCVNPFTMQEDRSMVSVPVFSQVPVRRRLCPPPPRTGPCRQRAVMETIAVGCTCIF
# T7: human IL-17D (human, UniProt Q8TAD2 18-202, limits assumed)
# T7 sequence (looked up): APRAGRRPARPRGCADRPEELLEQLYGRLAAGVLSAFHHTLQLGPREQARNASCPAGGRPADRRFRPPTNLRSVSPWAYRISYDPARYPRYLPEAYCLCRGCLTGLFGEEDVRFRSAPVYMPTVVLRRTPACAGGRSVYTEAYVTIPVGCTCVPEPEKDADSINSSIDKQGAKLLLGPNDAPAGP
# T8: human IL-17F (human, UniProt Q96PD4 31-163)
# T8 construct: also called IL-17F human
# T8 sequence (looked up): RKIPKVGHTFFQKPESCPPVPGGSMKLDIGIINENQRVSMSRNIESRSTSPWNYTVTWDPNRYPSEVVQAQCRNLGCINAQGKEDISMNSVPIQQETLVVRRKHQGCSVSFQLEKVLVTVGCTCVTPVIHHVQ
# B1: BCD-121 tri-specific anti-IL-17A/anti-IL-17F/anti-TNFα antibody (bispecific antibody, human IgG1, kappa, L234A L235A)
# heavy: not shown
# light: EVQLVQSGGGLVQAGGSLRLSCAASGGTFATSPMGWLRQAPGKGTEFVAAISPSGGDRIYADSVKGRFTISRDNAGNFIYLQMNSLKPEDTAVYYCAVRRRFDGTSYYTGDYDSWGQGTLVTVSSGGGSGGGSEGAGSDIQMTQSPSSLSASVGDRVTITCKASQNVGTNVAWYQQKPGKAPKALIYSASFLYSGVPYRFSGSGSGTDFTLTISSLQPEDFATYYCQQYNIFPLTFGQGTKVEIKRTVAAPSVFIFPPSDEQLKSGTASVVCLLNNFYPREAKVQWKVDNALQSGNSQESVTEQDSKDSTYSLSSTLTLSKADYEKHKVYACEVTHQGLSSPVTKSFNRGEC
# notes: also called Mab12; VHH-IgG1 (LALA)
# Key:
# guinea pig TNFα = biological target: T1, guinea pig TNFα; assay: ELISA, plate coated with guinea pig TNFα, anti-Fab HRP detection
# mouse TNFα = biological target: T2, mouse TNFα; assay: ELISA, plate coated with mouse TNFα, anti-Fab HRP detection
# human IL-17E = biological target: T3, human IL-17E; assay: ELISA, plate coated with human IL-17E, anti-Fab HRP detection
# Description: (§1) For the binding analysis, the wells of ELISA plates (medium binding from Greiner bio one) were individually coated with 50 μl of human IL-17A, IL-17B, IL-17C, IL-17D, IL-17E, IL-17F, or IL-17A/F (R&D Systems) at a concentration of 1 μg/ml (in 1× coating carbonate buffer), hermetically sealed, and incubated overnight at 4 C. All subsequent steps were performed by standard EIA protocol. To block non-specific binding blocking, buffer BB was added (200 μl of 0.5% skim milk in PBS). Plates were incubated on a shaker for one hour at room temperature. After washes with PBS-Tween, 50 μl of the test antibodies were added to each well at a concentration of 5 μg/ml in PBS-Tween. Plates were again incubated with shaking for one hour at room temperature, then each well of the plates was washed three times with PBS-Tween buffer. After washing, human anti-Fab HRP-conjugated secondary antibody (from Pierce-ThermoScientific) was added (50 μl/well) at a ratio of 1:5000 in PBS-Tween. Plates were shaken on a rotary shaker (50 min, room temperature) and washed three times with PBS-Tween buffer, as described above. […] The color signal was measured at 450 nm using a suitable plate-reader (Tecan-Sunrise; Tecan).
# human IL-17C = biological target: T4, human IL-17C; assay: ELISA, plate coated with human IL-17C, anti-Fab HRP detection
# Description: as §1
# rabbit TNFα = biological target: T5, rabbit TNFα; assay: ELISA, plate coated with rabbit TNFα, anti-Fab HRP detection
# human IL-17B = biological target: T6, human IL-17B; assay: ELISA, plate coated with human IL-17B, anti-Fab HRP detection
# Description: as §1
# human IL-17A [1] = biological target: T9, human IL-17A (human, UniProt Q16552 20-155, limits assumed); assay: SPR Biacore T200; ligand amine-coupled, antibody 1 to 25 µg/ml, Heterogeneous Ligand model; * below the threshold sensitivity of the device
# T9 construct: Recombinant preparations from several makers were used; also called IL-17A human; IL-17A-biotin
# Description: (§2) The analysis was conducted using the Sandwich approach using IL-17A and TNFα preparations produced by Sino Biologics. After activation of the chips, individual ligand was nonspecifically (by NH2 groups) immobilized on the biosensor surface at a concentration of 20 μg/ml. Loading of the antibody was then performed at a concentration from 1 to 25 μg/ml. Thereafter, the sensors were immersed in the running buffer for the complex dissociation step. The flow rate was 10 μl/min.
# (§3) Analysis of the obtained data was performed using BIA Evolution 3.1 software and the Heterogeneous Ligand model.
# human IL-17D = biological target: T7, human IL-17D; assay: ELISA, plate coated with human IL-17D, anti-Fab HRP detection
# Description: as §1
# human IL-17F = biological target: T8, human IL-17F; assay: BLI OctetRED96
# TNFα multta = biological target: T10, TNFα multta (multta (so in the source); primate), UniProt P48094 77-233); assay: SPR Biacore T200; ligand amine-coupled, antibody 1 to 25 µg/ml, Heterogeneous Ligand model
# T10 construct: The species is printed only as 'multta'; read as Macaca mulatta
# Description: as §2, §3
# cynomolgus IL-17A = biological target: T11, cynomolgus IL-17A (cyno, UniProt A0A2K5TTB0 24-155); assay: as above
# T11 construct: also called IL-17A cyno
# Description: as §2, §3
# human IL-17A [2] = biological target: T9, human IL-17A; assay: cell-based or functional assay
# T9 sequence (Q16552 20-155 limits assumed): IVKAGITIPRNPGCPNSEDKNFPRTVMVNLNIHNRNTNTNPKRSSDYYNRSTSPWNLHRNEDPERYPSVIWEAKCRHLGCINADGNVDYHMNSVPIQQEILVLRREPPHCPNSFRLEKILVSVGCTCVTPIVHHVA
# T10 sequence (P48094 77-233 limits assumed): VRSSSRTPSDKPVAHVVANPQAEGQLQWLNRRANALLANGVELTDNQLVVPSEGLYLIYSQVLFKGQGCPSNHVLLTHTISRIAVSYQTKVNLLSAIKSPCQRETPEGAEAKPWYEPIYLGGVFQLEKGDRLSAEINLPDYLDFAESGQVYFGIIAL
# T11 sequence (A0A2K5TTB0 entry or part of it): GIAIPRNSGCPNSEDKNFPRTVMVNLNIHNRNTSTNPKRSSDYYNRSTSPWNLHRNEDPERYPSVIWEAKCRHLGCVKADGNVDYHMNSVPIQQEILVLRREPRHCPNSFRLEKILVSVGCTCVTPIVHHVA
binder,measurement,setting,value
B1,binding result,guinea pig TNFα,no binding (tested: 2 ng/ml)
same,binding result,mouse TNFα,no binding (tested: 2 ng/ml)
same,binding result,human IL-17E,"no binding (tested: 0,5 ng/ml)"
same,binding result,human IL-17C,"no binding (tested: 0,5 ng/ml)"
same,binding result,rabbit TNFα,no binding (tested: 2 ng/ml)
same,binding result,human IL-17B,"no binding (tested: 0,5 ng/ml)"
same,Kd,human IL-17A [1],< 1 pM
same,binding result,human IL-17D,"no binding (tested: 0,5 ng/ml)"
same,Kd,human IL-17F,~4000 pM
same,Kd,TNFα multta,~1 pM
same,Kd,cynomolgus IL-17A,~1 pM
same,"IC50, IL-17A and TNFα induced IL-6 production, HT1080 cells",human IL-17A [2],0.02 µg/mL
same,"IC50, IL-17A-dependent IL-6 production, HT1080 cells",human IL-17A [2],0.0035 µg/mL
